Patent US20070259809A1

Molecular target: human thrombin (human) (UniProt P00734)
Test: cell-based or functional assay

thrombin inhibition (residual thrombin activity by chromogenic assay); 1 µM dose, wall shear rate 2,000 sec^-1: > 85%
Substance: recombinant DES.N135A ATIII (from UniProt P01008 33-464)
